Experimental data taken from patent publication US9834754B2, “Populations of hematopoietic progenitors and methods of enriching stem cells therefor” (University Health Network, priority 2011, dated 2017).

System: H1 hESCs differentiated as embryoid bodies (EBs)
Experiment: Hematopoietic colony assay of hESC-derived EBs
Type: cell-based, human
Experimental: The hESC line H1 (Thomson et al., 1998) and the reprogrammed human iPS cell line (MSC-iPS1; (Park et al., 2008)) were used in this study. They were maintained on irradiated mouse embryonic fibroblasts in hESC media as described previously (Kennedy et al., 2007). Prior to differentiation, the cells were feeder-depleted by culturing on matrigel (BD Biosciences, Bedford, Mass.) in hESC media for 24 to 48 hours. To generate EBs, hPSCs were treated with collagenase B (1 mg/ml; Roche, Indianapolis, Ind.) for 20 minutes followed by a short trypsin-EDTA (0.05%) step. Cells were gently scraped with a cell scraper to form small aggregates (10-20 cells). Aggregates were resuspended in StemPro-34 (Invitrogen), supplemented with penicillin/streptomycin (10 ng/mL), L-glutamine (2 mM), ascorbic acid (1 mM), monothioglycerol (MTG, 4×10^−4M; Sigma), and transferrin (150 μg/mL). BMP-4 (10 ng/mL), bFGF (5 ng/mL), Activin A, 6 μM SB-431542, VEGF (15 ng/mL), Dkk (150 ng/mL), IL-6 (10 ng/mL), IGF-1 (25 ng/mL), IL-11 (5 ng/mL), SCF (50 ng/mL), EPO (2 U/mL final), TPO (30 ng/mL), IL-3 (30 ng/mL) and Flt-3L (10 ng/mL) were added as indicated. Cultures were maintained in a 5% CO2/5% O2/90% N2 environment for the first 8 days and then transferred to a 5% CO2/air environment. All recombinant factors are human and were purchased from R&D Systems (Minneapolis, Minn.).
Analysis of hematopoietic colony potential was performed by plating either 5×103-2.5×10^4 sorted cells or 2.5×104-5.0×104 unfractionated EB populations in 1% methylcellulose containing specific cytokines as described in detail previously (Kennedy et al., 2007). Colonies consisting of erythroid, erythroid/myeloid and myeloid (either macrophage or mast cell) cells were quantified after 10-14 days.

B1: Activin A: recombinant human factor purchased from R&D Systems, used for hematopoietic induction (protein, UniProt P08476 311-426, looked up)
Inhibin beta A chain: GLECDGKVNICCKKQFFVSFKDIGWNDWIIAPSGYHANYCEGECPSHIAGTSGSSLSFHSTVINHYRMRGHSPFANLKSCCVPTKLRPMSMLYYDDGQNIIKKDIQNMIVEECGCS
0.3 ng/mL Activin A
  induction of myeloid and erythroid progenitors: effectively induced both myeloid and erythroid progenitors
Increasing concentrations of Activin A, days 2-4, FIG. 1C
  myeloid progenitors in day 13 EBs: reduction in myeloid progenitors
Treatment between days 2 and 4 of differentiation, Activin A at increasing concentrations, FIG. 1C
  erythroid progenitors in day 13 EBs: increase in erythroid progenitors
